# Measured values published in the nanobody polyreactivity screen of Harvey et al. (2022).
# Test: yeast display, Sf9 membrane polyspecificity reagent, FACS + sequencing; frameworks hold sequencing errors
# Procedure, shortened: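 After 36–48 hours of galactose induction, yeast (Saccharomyces cerevisiae BJ5465) displaying a synthetic nanobody library were stained at 4 °C for 1 hour with 10% biotinylated, detergent-solubilized Sf9 membrane reagent. Streptavidin microbeads enriched the stained cells before FACS sorting into low and high (top ~1%) gates on anti-HA and streptavidin fluorescence. Each clone's polyreactivity label reflects its gate of origin.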
row,Sequence,polyreactivity (PSR sort gate)
1,QVQLVESGGGLVQAGGSLRLSCAASGRTFRWYTLGWYRQAPGKERELVAAITSRGGSTYADSVKGRFTISRDNAKNTVYLQMNSLKPEDTAVYYCNAARTYQYDYWGQGTQVTVSS,high polyreactivity
2,QVQLVESRGGLVQAGGSHRLSCAASGSIIYGNTMGWYRQAPGKERELVAAIRRGGSTNYADSVKGRFTISRDNAKNTVYLQMNSMKPEDTAVYYCAKGHPSDFGYWGQGTQVNVSS,high polyreactivity
3,QVLLVESGGGLVQAGGSLRLSCAASGFIFRPNAMGWYRQAPGKERELVARITYRGGSTYYADSVKGRFTISRDNAKKTVYLKMNSLKPEDTAVYYCAARAVTYAGYTYNYWGQGTQVTVSS,high polyreactivity
4,QVQLVDSGGVLVQAVGSLRLSCAASGIIFDWYAMGWYRQAPGKERELVAAITANSDSTYYADSVNGRFTISRDNAKNTVYLQMNSLKPEDTAVYYCAARRQHRGANGGDYCGQGTQVTVSS,high polyreactivity
5,QVQLVESGGGLVQAGGSLRLSCAASGSIFYVYAMGWYRQAPGKERELVAAITNYADSVKGRFTISRDNAKNTVYLQMNSQKPPDTAVYYCAADWWRVEMDYWGQGTQVTVSS,low polyreactivity
6,HVQLQESGGGLVQVGGSLRLSCAASGTIFIYGFLGWNRQAPGKERELVASINLGGITNYADSVKGRFTIRRDNAKNTVYLQMISLKPEDTAVYYCAAYVVTGQNYGYWGQGTQVTVSS,low polyreactivity
7,QVQLVESGGGLVQAGGSLRLSCAASGRTFAYYAMGWYIPGPGKERELVAAISSGGSTYYADCVKGRFTISRDNAKNTVYLQMNSLIPEDTAVYYCATRDKQYYYWGQGTQVTVSS,high polyreactivity
8,QVQLVESGGGLVQAGGSLRLICAASGSIFSYYAMGWYIKAPGKERELVAVINSGGRTNYADSVKGRFTISRDNAKNTVYVQMNSLKPEDTAVYYCAAQCYFVERAGRYYRGEYWGQGTQVTVSS,high polyreactivity
9,QLQLVESGGGLVQAGGSLRLSCAASGSTFAPYAMGWYRQAPGKERELVADISGGSTNYADSVKGRFTISRDNAKNTVYLQMNSLKPEDTAVYYCATEDHVETVRRLYGYWGLGTQVTVSS,low polyreactivity
10,QVQLVESGGGLVQAGGSLRLSCAASGFTFYRNAMGWYRQAPGKERELVARISRRGGITSYADSVKGRFTISRDNAKNTVYLQMNSLKTEDTAVYYCKAEKRGQSYRFDYWGQGTQVTVSS,high polyreactivity
11,QVQLVESGGGLVQAGGCLRLSCAASGSIFFGYAMGWYRQAPGKERELVAAINGSVITSYADSVKGRFTISRDNAKNTVYLQMNSLKPEDTAYYCNTGSTWGAVIANYDHWGQGTQVTVSS,low polyreactivity
12,QFQLLESWGGLVQAGGSLLFSCAASGSTFGYYAMGWYRKAPGKERELVAAISKSGGTTSYADSVKGRFTISRDNAKNTVYLQMISLKPEDTAVYYCSARSFRRGGLRGYDSWGQGTQVTVSS,high polyreactivity
13,QVQLVESGGGLVQAGGSLRLSCAASGSTLYWNAMGWYRQAPGKERELVASITSSGGSTYYADSVKGRFTISRDNAKNTVYLQMNSLKPEDTAVYYCATESWWRYSEYYYWGQGTQVTVSS,low polyreactivity
14,QVQLVESGGCLVQAGGSLRLSCAASGSTFWSYAMGLYRQAPGKARELVAVIYRGGSTNYADSVKGRFTISRDNAKNTVYVQMNSLKREDTAVYYCASRYKTAEYYYWGQGTQVTVSS,high polyreactivity
15,QVQLVESGGGLVQARGSLRLSSAASGSTFSYYAMGGYRQEHGTETQLVATISKRGGSTYYADSVKGRFTISRDNAKNTVYLQMNSLKPEDTAVYYCAAEFLVRYGYDYWGQGTQVTVSS,high polyreactivity
16,QVQLVDSGGGLVQAGGSLRLSCAASGSIFKTYAMGWYRQAPGKERELVATNTRRTGSTYYADSVKGRFTISRDNAMNSVYLQMNSLKPEDPAVYYCAAELYPSWSHTVFHGYNYWGQGTQVTVSS,high polyreactivity
17,QVQLVESGGGLVQAGGSLRLSCAASGSIFAFYAMGWYRQAPGKERELVAAITASGGRTYYADSVKGRFTISRDNAKNTVYLQMNSLKPEDTAVYYCAAVGGATYSWNGTFLYDYDYWGQGTQVTVSS,low polyreactivity
18,LVQLQESGGGLVQAGGSLRLSCAASGTISPGGYMGWYRQAPGKERELVASINVGGSTNYADSVKGRFTISRDNAKNTVYLQRNSLKPEDNAVYYCAVWGRNRLQLSYWGQGTQVTVSS,low polyreactivity
19,QVQLVESGGCLVQAGGSLRLSCAASGRTFNRYAMGWYRQAPGKERELVAAITRRGGSTYYADSVKGRFTISRDNAKNTVYLQMNSLKPEDTAVYYCATDTYYSDYGSWGQGTQVTVSS,high polyreactivity
20,QVQLVESGGGLVQAGGSLRLICAASGSILVSYARGWYRQAPGKERELVAAITSGGRTKYADSVKGRFTISRDNAKNTVYLQMNSLKPEDNAVYYCAADDPLSYQFDYWGQGTQVTVSS,high polyreactivity
21,QVQLVESGGGLVQAGGSLRLSCAASGSIFSYYAMGWYRQAPGKERELVAAISYTGGTTYYADSVKGRFTISRDNAKNTVYLQMNSLKPEDTAVYYCAAQWWWNRPVRYEYWGQGTQVTVSS,low polyreactivity

row,Sequence,polyreactivity (PSR sort gate)
1,QVQLVESGGGLVQAGGSLRLSCAASGNIFSPYAMGWYRPAPGKERELVAAISSGDSTYYADSVKGRFTISRDNAKNTVYLQMNSLKPEDTAVYYCAADANYSNYQYYEFDYWGQGTQVTVSS,low polyreactivity
2,QVQLVESGGGLVQAGGSLRLSCAASGSIFGVNAMGWYRQTPGKERELVARINWSSGRTYYADSVKGRFTISRDNAKNTVYLQMNSLKQEDTAVYYCAAAYWRPGVRFFGPYDYWGQGTQVTVSS,high polyreactivity
3,QVQLVESGGGLVQAGGSLRISCAASGSIFEQYAMAWYRQAPGKERELVAAISKRGTSTYYAVSVKGRFTISRDNAKNTVYLQMNCLKPEDTAVYYCAATNRWYYRDAAAVYAFGYWGQGTQVTVSS,high polyreactivity
4,QVQLVESGGGLVQAGGSLRLSCAASGRTFEGNAMGWYRQAPGKERELVAAISGSGGRTYYADSVKGRFTISRDHAKNTVYLPMNSLKPEHTAVYYATLYSVYNPWRFNYWGQGTQVTVSS,high polyreactivity
5,QVQLVESGGGLVQAGGSLRLSCAASGSTFAWNVMGWYRQAPGKERELVAAISGRGGSTYYADSVKGRFTISRDNAKNTVYLQMNSLKPEDTAVYYCNKVYGRSRDVYDYDYWGQGTQVTVSS,high polyreactivity
6,QVQLVESGGGLVQAGGSLRLSCAASGSIFSRYALGWYRQAPGKERELVAAISTIGGSTYYADSVKGRFTISRDNSKNTVYLQMNSLKPEDTAVYYCNARQSAALSPRYGYWGQGTQVTVSS,high polyreactivity
7,QVQLVESGGGLVQAGGSLRLSCAASGSTFVSNVMGWYRQAPGKERELVAAITRGGSTKYADSVKGRFTISRDNAKNSVYLQMNSLKPEDTAVYYCAKRLYTRPGWYDYWGQGTQVTVSS,high polyreactivity
8,QVQLVESGGGLVQAGGSLRLSCAASGRTFVTNAMGWYRQAPGKERELVATIRFSGGGTYYAVSVKGRFTISRDNAKNTVYLQMNSLKPEDTAVYYCNADSIDPFLYDYWGQGTQVTVSS,low polyreactivity
9,QVQLVESGGGLVQAGGSLRLSCAASGSIFNLYTMGWYRQAPGKEREFVSAISSSGTSTYYADSVKGRFTISRDNAKNTVYLQMNSLKPEDTAVYYCAADWTGGFYTWYVIPYDYWGQGTQVTVSS,low polyreactivity
10,QVQLVESGGGLVQAGGSLRLSCAASGGTFPYNAMGWYRQAPGKEREFVAAISYTGGSTYYADSVKGRFTISRDNAKNTVYLQMNSLKPEDTAVYYCATEHTRTASGYWGQGTQVTVSS,low polyreactivity
11,QVQLVESGGGLVQAGGSLRLSCAASGRISLSNAMGWYKQAPGKEREFVAAITKRSDRTYYADSVKGRFTISRDNAKNTVYLQMNSLKPEDTAVYYCAAKPLFGTRDDYWGQGTQVTVSS,low polyreactivity
12,QVQLQESGGLVQAGVSLRLSCAASGSISGRNVMGWYLQAPVKQREFVASITDGSSSNYADSVKGRFTISRDNAKNTVYLQMNSLKPTDTAVYYCAAYGLRPKSFGNWGGGTQVTVSS,low polyreactivity
13,QVQLVESGGGLVQAGGSLRLSCAASGSTLYWYAMGWYRQAPGKERELVAGISIGGRTNYADSVKGRFTISRDNAKNTVYLQMNSLKPEDTAVYYCNAENTYLGSRYRPYNYWGQGTQVTVSS,low polyreactivity
14,QVHLVESGGGLVQAGGSLRLSCAASGRIFGLYAMGWYRQAPGKERELVASISYNGGSTYYADSVKGRFTISRDNAKNTVYLQMNSLKPEDTAVYYCAASLYYYGVRFGYWGQGTQVTVSS,high polyreactivity
15,QVQLVESGGGLVQAGGSLRLSCAASGNIFFIYAMGWYRQAPGKERELVAAITSTGSTYYADSVKGRFTISRDNAKNTVYLQMNSLKPEDTAVYYCAALLQRRFAYDYWGQGTQVTVSS,low polyreactivity
16,QVQLVESGGGLVQAGGSLRLSCAASGSTLRAYAMGWYRQAPGKERELVAGITSGGRTNYADSVKGRFTISRDNAKNTVYLQMNSLKPEDTAVYYCATDRFSHYYFLYDYWGQGTQVTVSS,low polyreactivity
17,QVQLVESGGGLVQAGGSLRLSCAASGRTFGGNAMGWYRQAPGKERELVAAITWRGGSTYYADSVKGRFTISRDNAKNTVYLQMNSLKPEDTAVYYCNAVRTGKYVKYYRSIFDYWGQGTQVTVSS,high polyreactivity
18,QVQLVESGGGLVQAGGSHRLSCAASGRIFRPNAMGWYRQAPGKERELVASISQSGGSTYADSVKGRFTISRDNAKNTVYLQMNSLKPEDTAVYYCAKVQGWRYQIYDYWGQGTQVTVSS,low polyreactivity
19,QVQLVESGGGLVQAGGSLRLSCAASGSIFVSYAMGWYRQAPGKERELVAAITWSGGSTYYADSVKGRFTISRDNAKNTVYLQMKSLKPEDTAVYYCAADEPYPTAYEYWGQGTQVTVSS,low polyreactivity
20,QVQLVESGGGLVQAGGSLRLSCAASGSTFWLYTMGCYRQAPVKERELVAAISTRGGSTYYADSVKGRFTISRDNAKNTVYVQMHSLKPEDTAVYYCAAYPTYGEYDYWGQGSQVTVSS,high polyreactivity
